Measurements: the supplement of paper PMC9112550, “Optimization of the antimicrobial peptide Bac7 by deep mutational scanning” (BMC Biology, 2022)

system: Escherichia coli TOP10; test: shrunken log2 fold change of peptide-encoding DNA abundance (4.5 h post-induction vs induction); higher = less antimicrobial activity (less host growth inhibition); conditions: time post-induction: 4.5 h; library: site-saturation at positions 5, 18, 19, 20
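Note: peptides expressed intracellularly from a pBAD plasmid library in pooled LB shake-flask culture, induced with 0.3% L-arabinose, DNA abundance read by NGS, three biological replicates, DESeq2 with apeglm shrinkage.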

| Sequence | shrunken log2 fold change |
| --- | --- |
| RRIRDRPPRLPRPRPRPNRYPRP | -0.0973 |
| RRIRNRPPRLPRPRPRPWGPPRP | -0.37 |
| RRIRMRPPRLPRPRPRPVNKPRP | -0.256 |
| RRIRNRPPRLPRPRPRPIIYPRP | -1.06 |
| RRIRDRPPRLPRPRPRPMWPPRP | 0.316 |
| RRIRERPPRLPRPRPRPVCGPRP | 0.243 |
| RRIRMRPPRLPRPRPRPLIQPRP | 0.00597 |
| RRIRNRPPRLPRPRPRPIGLPRP | -0.123 |
| RRIRPRPPRLPRPRPRPPVDPRP | 0.52 |
| RRIRNRPPRLPRPRPRPQMRPRP | 0.308 |
| RRIRLRPPRLPRPRPRPTHTPRP | -0.158 |
| RRIRRRPPRLPRPRPRPSDGPRP | 0.0219 |
| RRIRVRPPRLPRPRPRPLYKPRP | -0.584 |
| RRIRFRPPRLPRPRPRPICAPRP | 0.0631 |
| RRIRRRPPRLPRPRPRPCRAPRP | 0.182 |
| RRIRGRPPRLPRPRPRPTQTPRP | 0.775 |
| RRIRDRPPRLPRPRPRPVGVPRP | 0.189 |
| RRIRTRPPRLPRPRPRPHHIPRP | -0.278 |
| RRIRFRPPRLPRPRPRPEPKPRP | 0.415 |
| RRIRLRPPRLPRPRPRPLFFPRP | 0.417 |
| RRIRERPPRLPRPRPRPLFGPRP | -0.0794 |
| RRIRQRPPRLPRPRPRPPKMPRP | -0.0821 |
| RRIRQRPPRLPRPRPRPYMTPRP | -0.122 |
| RRIRARPPRLPRPRPRPVSCPRP | 0.473 |
| RRIRLRPPRLPRPRPRPQSHPRP | -0.349 |

| Sequence | shrunken log2 fold change |
| --- | --- |
| RRIRWRPPRLPRPRPRPCRSPRP | 0.0427 |
| RRIRGRPPRLPRPRPRPNVNPRP | 0.371 |
| RRIRYRPPRLPRPRPRPCELPRP | -0.0555 |
| RRIRKRPPRLPRPRPRPPCKPRP | -0.242 |
| RRIRCRPPRLPRPRPRPTTDPRP | -0.0121 |
| RRIRGRPPRLPRPRPRPVSEPRP | 0.797 |
| RRIRDRPPRLPRPRPRPSKFPRP | -0.105 |
| RRIRTRPPRLPRPRPRPFDRPRP | 0.0237 |
| RRIRARPPRLPRPRPRPWCLPRP | -0.214 |
| RRIRIRPPRLPRPRPRPSMWPRP | -0.178 |
| RRIRMRPPRLPRPRPRPCDGPRP | 0.0158 |
| RRIRRRPPRLPRPRPRPTKIPRP | 0.0521 |
| RRIRERPPRLPRPRPRPGTHPRP | -0.394 |
| RRIRGRPPRLPRPRPRPRVAPRP | 0.816 |
| RRIRQRPPRLPRPRPRPVNLPRP | -0.014 |
| RRIRARPPRLPRPRPRPCPSPRP | 0.0639 |
| RRIRKRPPRLPRPRPRPHENPRP | -0.00978 |
| RRIRRRPPRLPRPRPRPNYWPRP | -0.19 |
| RRIRMRPPRLPRPRPRPILCPRP | 0.0427 |
| RRIRHRPPRLPRPRPRPSQEPRP | -0.27 |
| RRIRTRPPRLPRPRPRPSSWPRP | 0.131 |
| RRIRVRPPRLPRPRPRPWSVPRP | -0.0304 |
| RRIRTRPPRLPRPRPRPDSCPRP | -0.311 |
| RRIRYRPPRLPRPRPRPPWAPRP | 0.449 |
| RRIRVRPPRLPRPRPRPNWDPRP | -0.0621 |

| Sequence | shrunken log2 fold change |
| --- | --- |
| RRIRRRPPRLPRPRPRPYHAPRP | -0.0669 |
| RRIRGRPPRLPRPRPRPANRPRP | 0.0838 |
| RRIRPRPPRLPRPRPRPEYIPRP | -0.0411 |
| RRIRKRPPRLPRPRPRPFCVPRP | 0.706 |
| RRIRHRPPRLPRPRPRPGSMPRP | -0.099 |
| RRIRRRPPRLPRPRPRPNFNPRP | -0.0741 |
| RRIRIRPPRLPRPRPRPFPHPRP | -0.174 |
| RRIRSRPPRLPRPRPRPNEIPRP | -0.12 |
| RRIRERPPRLPRPRPRPWMVPRP | -0.685 |
| RRIRTRPPRLPRPRPRPWAVPRP | -0.0894 |
| RRIRRRPPRLPRPRPRPDATPRP | 1.32 |
| RRIRDRPPRLPRPRPRPANRPRP | -0.0377 |
| RRIRFRPPRLPRPRPRPKFEPRP | -0.081 |
| RRIRTRPPRLPRPRPRPDQSPRP | -0.0809 |
| RRIRCRPPRLPRPRPRPFPRPRP | 0.134 |
| RRIRSRPPRLPRPRPRPPRCPRP | 0.218 |
| RRIRARPPRLPRPRPRPWMDPRP | 0.14 |
| RRIRSRPPRLPRPRPRPQHGPRP | -0.397 |
| RRIRCRPPRLPRPRPRPSVNPRP | -0.348 |
| RRIRGRPPRLPRPRPRPCVGPRP | 0.729 |
| RRIRRRPPRLPRPRPRPKNTPRP | -0.0507 |
| RRIRIRPPRLPRPRPRPYVEPRP | -0.0566 |
| RRIRCRPPRLPRPRPRPSQWPRP | -0.337 |
| RRIRVRPPRLPRPRPRPALTPRP | 0.117 |
| RRIRCRPPRLPRPRPRPSIYPRP | -0.713 |

| Sequence | shrunken log2 fold change |
| --- | --- |
| RRIRMRPPRLPRPRPRPCEMPRP | 0.084 |
| RRIRCRPPRLPRPRPRPYPNPRP | -0.459 |
| RRIRERPPRLPRPRPRPFPLPRP | -0.134 |
| RRIRYRPPRLPRPRPRPRRSPRP | -0.0446 |
| RRIRSRPPRLPRPRPRPEEKPRP | 0.206 |
| RRIRMRPPRLPRPRPRPVFRPRP | -0.0467 |
| RRIRVRPPRLPRPRPRPCPQPRP | -0.0828 |
| RRIRTRPPRLPRPRPRPSHYPRP | -1.32 |
| RRIRYRPPRLPRPRPRPEIYPRP | -0.279 |
| RRIRTRPPRLPRPRPRPGMTPRP | -0.2 |
| RRIRGRPPRLPRPRPRPRHGPRP | 0.264 |
| RRIRRRPPRLPRPRPRPAFIPRP | 0.115 |
| RRIRLRPPRLPRPRPRPWKQPRP | -0.0134 |
| RRIRFRPPRLPRPRPRPLRKPRP | 0.465 |
| RRIRHRPPRLPRPRPRPSKIPRP | -0.517 |
| RRIRMRPPRLPRPRPRPYRLPRP | -0.0977 |
| RRIRARPPRLPRPRPRPPHVPRP | 0.805 |
| RRIRGRPPRLPRPRPRPKCPPRP | 0.625 |
| RRIRKRPPRLPRPRPRPYLNPRP | -0.362 |
| RRIRIRPPRLPRPRPRPSVRPRP | -0.238 |
| RRIRLRPPRLPRPRPRPRCVPRP | 0.0662 |
| RRIRWRPPRLPRPRPRPCKAPRP | -0.0863 |
| RRIRIRPPRLPRPRPRPEPIPRP | 0.185 |
| RRIRYRPPRLPRPRPRPLIVPRP | -0.895 |
| RRIRMRPPRLPRPRPRPPGFPRP | 0.619 |

| Sequence | shrunken log2 fold change |
| --- | --- |
| RRIRTRPPRLPRPRPRPPHVPRP | 0.307 |
| RRIRVRPPRLPRPRPRPDFPPRP | 0.0164 |
| RRIRQRPPRLPRPRPRPAQRPRP | 0.302 |
| RRIRGRPPRLPRPRPRPQAWPRP | 0.69 |
| RRIRARPPRLPRPRPRPSIRPRP | -0.0712 |
| RRIRKRPPRLPRPRPRPYHPPRP | 0.0155 |
| RRIRKRPPRLPRPRPRPEPMPRP | 0.504 |
| RRIRGRPPRLPRPRPRPNFEPRP | 1.87 |
| RRIRERPPRLPRPRPRPFRYPRP | -0.268 |
| RRIRNRPPRLPRPRPRPSWKPRP | 0.0635 |
| RRIRMRPPRLPRPRPRPRDGPRP | 2.69 |
| RRIRSRPPRLPRPRPRPEIQPRP | 0.00278 |
| RRIRRRPPRLPRPRPRPCKHPRP | 0.00883 |
| RRIRPRPPRLPRPRPRPCALPRP | -0.0401 |
| RRIRQRPPRLPRPRPRPTKNPRP | 0.0334 |
| RRIRPRPPRLPRPRPRPDHYPRP | -0.203 |
| RRIRSRPPRLPRPRPRPNFDPRP | 0.221 |
| RRIRLRPPRLPRPRPRPIKYPRP | 0.0258 |
| RRIRFRPPRLPRPRPRPFKHPRP | -0.2 |
| RRIRMRPPRLPRPRPRPDVAPRP | 0.0335 |
| RRIRQRPPRLPRPRPRPSDAPRP | 0.147 |
| RRIRGRPPRLPRPRPRPMCEPRP | 2.46 |
| RRIRGRPPRLPRPRPRPNWLPRP | 0.341 |
| RRIRGRPPRLPRPRPRPKMTPRP | 1.83 |
| RRIRVRPPRLPRPRPRPECRPRP | 0.238 |

| Sequence | shrunken log2 fold change |
| --- | --- |
| RRIRPRPPRLPRPRPRPLLIPRP | -0.758 |
| RRIRVRPPRLPRPRPRPRNCPRP | -0.129 |
| RRIRIRPPRLPRPRPRPWIEPRP | -0.186 |
| RRIRERPPRLPRPRPRPIECPRP | -0.339 |
| RRIRQRPPRLPRPRPRPKPTPRP | -0.0515 |
| RRIRFRPPRLPRPRPRPKLHPRP | -0.0553 |
| RRIRERPPRLPRPRPRPNWPPRP | 0.202 |
| RRIRPRPPRLPRPRPRPWPTPRP | 0.438 |
| RRIRCRPPRLPRPRPRPGNTPRP | -0.205 |
| RRIRRRPPRLPRPRPRPWDSPRP | 0.0548 |
| RRIRSRPPRLPRPRPRPVPPPRP | 0.329 |
| RRIRDRPPRLPRPRPRPMQKPRP | 0.0229 |
| RRIRWRPPRLPRPRPRPCVIPRP | -0.059 |
| RRIRGRPPRLPRPRPRPYLKPRP | -0.0688 |
| RRIRDRPPRLPRPRPRPKVAPRP | 0.458 |
| RRIRQRPPRLPRPRPRPWLTPRP | -0.13 |
| RRIRVRPPRLPRPRPRPREHPRP | 0.322 |
| RRIRHRPPRLPRPRPRPFTPPRP | -0.484 |
| RRIRRRPPRLPRPRPRPHLRPRP | 0.298 |
| RRIRIRPPRLPRPRPRPGIKPRP | -0.0876 |
| RRIRFRPPRLPRPRPRPHRGPRP | 0.0928 |
| RRIRRRPPRLPRPRPRPPERPRP | 0.643 |
| RRIRTRPPRLPRPRPRPRALPRP | 0.116 |
| RRIRLRPPRLPRPRPRPYVCPRP | -0.0658 |
| RRIRCRPPRLPRPRPRPWYQPRP | -0.272 |
